Results from the supplement of paper PMC10724198.
± gives the standard deviation of the averaged measurements.

test system: Saccharomyces cerevisiae; assay: protein stability index of tFT-peptide fusion (C-terminal peptide) (PSI (0-1 scale)); higher = more stable (slower turnover); details: genetic background: wild type; temperature: 30 C
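Note: PSI is a weighted mean of sequencing reads over stability bins, variants kept only with over 10 reads, mCherry proximal and sfGFP distal, peptide attached via GGGS linker.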

TVVTIGAHIGPR and TVWCRLKGEGRS are within error of each other in protein stability index: 0.78 ± 0.048 for the first, 0.737 ± 0.084 for the second.

Going from TWARRAHALRCR to TWIRIEQKTEVR, the protein stability index rises from 0.493 ± 0.015 to 0.631 ± 0.017.

TWQWGAFNRIKG and TWSLLHDTQTWD are within error of each other in protein stability index: 0.68 ± 0.13 for the first, 0.78 ± 0.068 for the second.

TWSSLVSAVRRN and TYACRQEWRESR are within error of each other in protein stability index: 0.701 ± 0.079 for the first, 0.731 ± 0.041 for the second.

First: TYFIVGGCGFFG
Second: TYRLSHFFKILP
The protein stability index of the first is higher: 0.643 ± 0.06 for the first, 0.566 ± 0.013 for the second.

TYSPPSPTPPAR and TYSTLHILLSSS are within error of each other in protein stability index: 0.656 ± 0.055 for the first, 0.602 ± 0.014 for the second.

TYTCRQVSCNAL and VAAFGGGGTNGV are within error of each other in protein stability index: 0.681 ± 0.012 for the first, 0.665 ± 0.075 for the second.

VADGEAGPLFKI and VAFLSSADLLPP are within error of each other in protein stability index: 0.644 ± 0.069 for the first, 0.676 ± 0.056 for the second.

VAGAVGSAQFER and VAGFYCQKWFSI are within error of each other in protein stability index: 0.649 ± 0.13 for the first, 0.657 ± 0.08 for the second.

VAGGGVAMVGSA and VAGLARVSLHGF are within error of each other in protein stability index: 0.619 ± 0.069 for the first, 0.6746 ± 0.0052 for the second.

VAGWGAGREAAY and VALAPLRDVPSG are within error of each other in protein stability index: 0.657 ± 0.026 for the first, 0.681 ± 0.043 for the second.

Compared with VALLLGSRFDFT, VANRFRSILVRR is lower in protein stability index: 0.6627 ± 0.0023 for the first, 0.599 ± 0.023 for the second.

First: VAPPRLSHGAPY
Second: VASKVNLPVWFW
The protein stability index of the first is lower: 0.545 ± 0.061 for the first, 0.702 ± 0.021 for the second.

First: VAVGIEGGGWGV
Second: VAVRGGCGDWGR
The protein stability index of the first is higher: 0.764 ± 0.032 for the first, 0.689 ± 0.021 for the second.

Compared with VCCAQVCICCLR, VCFSCLFHESCL is higher in protein stability index: 0.58 ± 0.017 for the first, 0.726 ± 0.042 for the second.

First: VCFSPVARRDVY
Second: VCFVGGGGSCRD
The protein stability index of the first is higher: 0.771 ± 0.049 for the first, 0.635 ± 0.068 for the second.

VCGLGGGQWQGV and VCGNRLSATAIT are within error of each other in protein stability index: 0.729 ± 0.028 for the first, 0.684 ± 0.084 for the second.

Going from VCGQRLKDVGVG to VCHYKVSFSCLL, the protein stability index rises from 0.499 ± 0.037 to 0.64 ± 0.044.

VCIGGGGVVLGL and VCLATPPSTVTP are within error of each other in protein stability index: 0.645 ± 0.04 for the first, 0.619 ± 0.065 for the second.

VCLGRSEETLSS and VCLRRYGVMADV are within error of each other in protein stability index: 0.608 ± 0.15 for the first, 0.628 ± 0.015 for the second.

VCPGMLVYGRGI and VCPILMARHCVE are within error of each other in protein stability index: 0.744 ± 0.092 for the first, 0.691 ± 0.057 for the second.

VCPSPSTPPGLF and VCRSSGSFDLGI are within error of each other in protein stability index: 0.695 ± 0.019 for the first, 0.774 ± 0.064 for the second.

Going from VCSFLSVDASPP to VCTLLWLLSLVS, the protein stability index falls from 0.699 ± 0.018 to 0.573 ± 0.017.

VDEREKGSKQGK and VDTGMAAGLTFG are within error of each other in protein stability index: 0.689 ± 0.031 for the first, 0.685 ± 0.034 for the second.

VDVHWSVLCPLG and VDVSGVCEFVLG are within error of each other in protein stability index: 0.851 ± 0.098 for the first, 0.706 ± 0.1 for the second.

VDWLCGGLGGVR and VDYARECALIGG are within error of each other in protein stability index: 0.742 ± 0.11 for the first, 0.782 ± 0.11 for the second.

First: VEARKKTLNTGP
Second: VEAVSLVFLYGV
The protein stability index of the first is higher: 0.713 ± 0.033 for the first, 0.552 ± 0.012 for the second.

VEGSRDSLGCMD and VEKQFSVWSFRG are within error of each other in protein stability index: 0.679 ± 0.03 for the first, 0.68 ± 0.031 for the second.

VELALPRGSTVV and VEMVVEFKFGTS are within error of each other in protein stability index: 0.6596 ± 0.005 for the first, 0.703 ± 0.18 for the second.

Going from VFCFRFLSFCPW to VFCPSPGPLAFA, the protein stability index rises from 0.542 ± 0.026 to 0.673 ± 0.072.

VFCVFACLCIVF and VFFLSYGPFLAM are within error of each other in protein stability index: 0.522 ± 0.091 for the first, 0.5963 ± 0.0038 for the second.

VFGGAGVGGDCG and VFGKGRWDCFLI are within error of each other in protein stability index: 0.669 ± 0.012 for the first, 0.727 ± 0.073 for the second.

VFGLVGWCAGDC and VFGSGLRATGAV are within error of each other in protein stability index: 0.715 ± 0.094 for the first, 0.635 ± 0.086 for the second.

VFKNRWLGGEKV and VFLLCSLPTFWR are within error of each other in protein stability index: 0.69 ± 0.012 for the first, 0.662 ± 0.062 for the second.

VFLLSPLLVPRD and VFLVESFSPPNA are within error of each other in protein stability index: 0.647 ± 0.11 for the first, 0.701 ± 0.029 for the second.

Compared with VFPLWLRRPFPF, VFTALALISYMQ is lower in protein stability index: 0.695 ± 0.041 for the first, 0.5917 ± 0.0022 for the second.

Going from VFVGLFCVLGRV to VFVRVVGDLRWE, the protein stability index rises from 0.523 ± 0.0079 to 0.578 ± 0.045.

VGAGAGGGGWVL and VGAGGLWCGGGY are within error of each other in protein stability index: 0.782 ± 0.017 for the first, 0.83 ± 0.031 for the second.

VGDCVVRGLWLS and VGERGGIGARSG are within error of each other in protein stability index: 0.639 ± 0.03 for the first, 0.673 ± 0.021 for the second.

Compared with VGFGTGGAVGVE, VGFPLVSSPLRL is lower in protein stability index: 0.687 ± 0.041 for the first, 0.566 ± 0.059 for the second.

Compared with VGGAPLVSACCI, VGGEWGLGVRPR is higher in protein stability index: 0.596 ± 0.022 for the first, 0.703 ± 0.014 for the second.

VGGGGLSGGAER and VGGGGRRGKVWG are within error of each other in protein stability index: 0.678 ± 0.0093 for the first, 0.649 ± 0.035 for the second.

VGGIGGWFCRGR and VGGKSVVRAESS are within error of each other in protein stability index: 0.73 ± 0.13 for the first, 0.645 ± 0.013 for the second.

VGGLGRGTGSGP and VGGTSWGIEKSS are within error of each other in protein stability index: 0.683 ± 0.096 for the first, 0.649 ± 0.052 for the second.

VGGVGEWCLVRL and VGGVVGVGSVGV are within error of each other in protein stability index: 0.6746 ± 0.0046 for the first, 0.775 ± 0.14 for the second.

VGGWGGVGTCVW and VGHGGCCGWGCG are within error of each other in protein stability index: 0.711 ± 0.047 for the first, 0.786 ± 0.1 for the second.

VGKQRISPSSPS and VGKRGQRRVARL are within error of each other in protein stability index: 0.664 ± 0.018 for the first, 0.692 ± 0.021 for the second.

Compared with VGLFGLCRVFGM, VGLFMGSPFMET is higher in protein stability index: 0.646 ± 0.023 for the first, 0.693 ± 0.0087 for the second.

VGLFRESLFRRG and VGLSVRFPVANH are within error of each other in protein stability index: 0.714 ± 0.072 for the first, 0.673 ± 0.037 for the second.

VGMGAWVQQIVL and VGQCVWRVGRSS are within error of each other in protein stability index: 0.666 ± 0.043 for the first, 0.69 ± 0.044 for the second.

VGRGGGGWRLEG and VGRGGGVWRLEG are within error of each other in protein stability index: 0.694 ± 0.078 for the first, 0.699 ± 0.045 for the second.

VGRGGVRRLLQT and VGRIGNWRFGAG are within error of each other in protein stability index: 0.709 ± 0.037 for the first, 0.695 ± 0.0084 for the second.

VGRVGEGGGGRG and VGRWCCELVWGV are within error of each other in protein stability index: 0.679 ± 0.046 for the first, 0.645 ± 0.022 for the second.

First: VGRWVLEARGVV
Second: VGSGKYGVVGVG
The protein stability index of the first is higher: 0.715 ± 0.031 for the first, 0.518 ± 0.029 for the second.

VGSMRRYCRTKI and VGSPLSVCLSSR are within error of each other in protein stability index: 0.792 ± 0.25 for the first, 0.702 ± 0.012 for the second.

VGSSRRGCSGAE and VGVQLLLSAWEK are within error of each other in protein stability index: 0.685 ± 0.024 for the first, 0.715 ± 0.066 for the second.

VGVSGVCGDWAM and VGVSWSMYCANW are within error of each other in protein stability index: 0.67 ± 0.05 for the first, 0.631 ± 0.11 for the second.

VGVVGGSWEVVG and VGVWTGGDVDCH are within error of each other in protein stability index: 0.685 ± 0.031 for the first, 0.777 ± 0.086 for the second.

VGWLCVLGGAQR and VGWRVAVGWGLG are within error of each other in protein stability index: 0.762 ± 0.045 for the first, 0.691 ± 0.083 for the second.

Going from VHFISPACSPPT to VHLYGRTAGRGV, the protein stability index rises from 0.673 ± 0.058 to 0.816 ± 0.06.

VHRYGGFRGEMS and VHSGSVDVSSFS are within error of each other in protein stability index: 0.702 ± 0.08 for the first, 0.697 ± 0.018 for the second.

Compared with VHSSWRVAACGK, VHVLLSGVICAL is lower in protein stability index: 0.698 ± 0.031 for the first, 0.471 ± 0.061 for the second.

VIAEHCSKQGLI and VIGGGRVLGIGG are within error of each other in protein stability index: 0.639 ± 0.018 for the first, 0.653 ± 0.1 for the second.

VIGGRQGVVRHR and VIGIRNGADMSI are within error of each other in protein stability index: 0.68 ± 0.025 for the first, 0.667 ± 0.013 for the second.

VIPLSARGEEGD and VIPTYESNDRQS are within error of each other in protein stability index: 0.7001 ± 0.0035 for the first, 0.652 ± 0.064 for the second.

First: VIQVRDLRLFSR
Second: VIRPMTVYSVVS
The protein stability index of the first is higher: 0.734 ± 0.028 for the first, 0.515 ± 0.029 for the second.

VIRSLPSSALPL and VITYKKKNTRKQ are within error of each other in protein stability index: 0.662 ± 0.08 for the first, 0.673 ± 0.093 for the second.

VKIYSSPFFCLI and VKLSVITGCRVT are within error of each other in protein stability index: 0.57 ± 0.011 for the first, 0.659 ± 0.092 for the second.

VKSSIGWLKVGF and VKSSSCSVLRSL are within error of each other in protein stability index: 0.671 ± 0.15 for the first, 0.7 ± 0.038 for the second.

VKTETNTDGKKR and VKVAFSIASRVD are within error of each other in protein stability index: 0.67 ± 0.15 for the first, 0.79 ± 0.0028 for the second.

VLAGFVLNDWVP and VLCRPLLPTSRL are within error of each other in protein stability index: 0.731 ± 0.023 for the first, 0.772 ± 0.02 for the second.

Compared with VLDRGGAGAVCV, VLFATLHVMALK is lower in protein stability index: 0.649 ± 0.024 for the first, 0.55 ± 0.026 for the second.

VLFDGSWSGSYL and VLGFGGVVLFFL are within error of each other in protein stability index: 0.741 ± 0.15 for the first, 0.642 ± 0.06 for the second.

Compared with VLGGGLGVLTWV, VLGGSGFAGSPS is lower in protein stability index: 0.753 ± 0.018 for the first, 0.659 ± 0.014 for the second.

VLGLGSGGVCGG and VLGRLRGGRDRV are within error of each other in protein stability index: 0.693 ± 0.023 for the first, 0.723 ± 0.023 for the second.

VLGSVGGFVQRD and VLGVFFGSVEGC are within error of each other in protein stability index: 0.677 ± 0.036 for the first, 0.68 ± 0.05 for the second.

VLLFALSPHPPS and VLLPRIRPSYSL are within error of each other in protein stability index: 0.724 ± 0.024 for the first, 0.674 ± 0.045 for the second.

Going from VLLRLVGLCQYL to VLLSFLHLTASS, the protein stability index rises from 0.50067 ± 0.0004 to 0.606 ± 0.03.

VLPGCFSISAPP and VLPLFSSFSRSP are within error of each other in protein stability index: 0.7038 ± 0.0062 for the first, 0.674 ± 0.058 for the second.

Going from VLPPPPTRPLLP to VLPRVLADVRST, the protein stability index falls from 0.743 ± 0.019 to 0.685 ± 0.03.
